The chains are these.
B1: POU domain, class 4, transcription factor 3, residues 185 to 256; numbered along this chain, Q15319 (parent)
chain: RELEAFAERFKQRRIKLGVTQADVGAALANLKIPGVGSLSQSTICRFESLTLSHNNMIALKPVLQAWLEEAE

± gives the uncertainty stated by the source.

The data set covers variants of B1. Description: abundance fitness (aPCA) (normalised: wild type 0, dead -1); higher = more abundant; growth selection in yeast, the domain comes from the species named. To be noted: Homo sapiens.
As to RELEAFAERFKQRRIKLGVTQKDVGAALANLKIPGVGSLSQSTICRFESLTLSHNNMIALKPVLQAWLEEAE [A22K], the abundance fitness is -0.263 ± 0.23.
On to RELEAFAERFKQRRIKLGVTQADVGAALANLKIPGVGSLSQSTICRFESLTLSHNNMIALKPVLQAWLEEGE [A71G], for which the abundance fitness is -0.226 ± 0.03.
The figure for RELEAFAERFKQRRIKLGVTQADVGAALANLKIPGVGSLSQSTICRFESLTLSHNNMIALHPVLQAWLEEAE [K61H] is -0.105 ± 0.062; for RENEAFAERFKQRRIKLGVTQADVGAALANLKIPGVGSLSQSTICRFESLTLSHNNMIALKPVLQAWLEEAE [L3N] it is -0.605 ± 0.12.
For RELEAFAERFKQRRIKLGVTQADVGAALANLKIPGVGSLSQSTICRFESLTLSHNIMIALKPVLQAWLEEAE [N56I] the value was -0.157 ± 0.21; for RELEAFAERFKQRRIKLGVTQADVGAALANLKIPGVGSLSQSTICRFESLTLSHNNMIALKPVLQAWLEEAG [E72G], -0.278 ± 0.037; for RELEAFAERFKQRRIKLGVTQADVGAALANLKIPGVGSLSQSTICRFESLTLSHNNMIALKPVLQAWLEEAT [E72T], -0.219 ± 0.043.
The figure for RELEAFAERFKQRRIKLGVTQADVGAALANLKIPGVGSLSQSTICRFESLTLSHNNMIALKPVLQAWLEEAN [E72N] is -0.192 ± 0.057.
Turning to RELEAFAERFKQRRIKLGVEQADVGAALANLKIPGVGSLSQSTICRFESLTLSHNNMIALKPVLQAWLEEAE [T20E], the abundance fitness was -0.18 ± 0.043.
For RELEAFAERFKQRRIKLGVTQADVGAALANLKIPGVGSLSQSTICRFESLTLSHNNMIAQKPVLQAWLEEAE [L60Q] the value was -0.376 ± 0.24; for RELEAFAERFKQRRIKLGVTQADVGAALANLKIPGVGSLSQSTICRFESLTLSHNNMIARKPVLQAWLEEAE [L60R], -0.845 ± 0.25.
For RELEAFAERFKQRRIKLGVTQADVGAALANLKIPGVGSLSQSLICRFESLTLSHNNMIALKPVLQAWLEEAE [T43L] the value was -0.012 ± 0.042; for RELEAFAERFKQSRIKLGVTQADVGAALANLKIPGVGSLSQSTICRFESLTLSHNNMIALKPVLQAWLEEAE [R13S], 0.08 ± 0.049; for RELEAFAERFKQCRIKLGVTQADVGAALANLKIPGVGSLSQSTICRFESLTLSHNNMIALKPVLQAWLEEAE [R13C], -0.265 ± 0.043.
For the variant RELEAFAERFKQTRIKLGVTQADVGAALANLKIPGVGSLSQSTICRFESLTLSHNNMIALKPVLQAWLEEAE [R13T], the abundance fitness worked out at 0.108 ± 0.072.
For RELEAFAERFKQRRIKLGVTQADVGAVLANLKIPGVGSLSQSTICRFESLTLSHNNMIALKPVLQAWLEEAE [A27V] the value was -0.139 ± 0.047; for RELEAFAERFKQRRIKLGVTQADVGAALANLKIPGVGSLSQSTICRVESLTLSHNNMIALKPVLQAWLEEAE [F47V], -0.718 ± 0.1.
Turning to RELEAFAERFKQRRIKLGVTQADVGAALANLKIPGVGSLSQSTICRSESLTLSHNNMIALKPVLQAWLEEAE [F47S], the abundance fitness was -0.747 ± 0.081.
For RELEAFAEMFKQRRIKLGVTQADVGAALANLKIPGVGSLSQSTICRFESLTLSHNNMIALKPVLQAWLEEAE [R9M] the value was 0.111 ± 0.045.
For RELEAFAEFFKQRRIKLGVTQADVGAALANLKIPGVGSLSQSTICRFESLTLSHNNMIALKPVLQAWLEEAE [R9F] the value was -0.33 ± 0.039.
The figure for RELEAFAEAFKQRRIKLGVTQADVGAALANLKIPGVGSLSQSTICRFESLTLSHNNMIALKPVLQAWLEEAE [R9A] is -0.045 ± 0.077.
RELEAFAERFKQRRIKLGVTQADVGAALANLKIPGVGSLSQSTICRFESLKLSHNNMIALKPVLQAWLEEAE [T51K]: the abundance fitness is 0.111 ± 0.12.
The figure for RELEAFAERFKQRRIKLGVTQADVGAALANLKIPGVGSLSQSTICRFESLLLSHNNMIALKPVLQAWLEEAE [T51L] is -0.13 ± 0.056; for RELEAFAERFKQRRIKLGVTQADVGAALANLKIPGVGSLSQSTICRFESLPLSHNNMIALKPVLQAWLEEAE [T51P] it is -1.19 ± 0.27.
For RELEAFAERFKQRTIKLGVTQADVGAALANLKIPGVGSLSQSTICRFESLTLSHNNMIALKPVLQAWLEEAE [R14T] the value was -1.15 ± 0.18; for RELEAFAERFKQRRIKLGVTQADVGAALANLKIPGVGSLSQSTICRFESLTLSHNNMIALKPVRQAWLEEAE [L64R], -0.818 ± 0.055; for RELEAFAERFKQRRIKLGVTQADVGAALANLKIPGVGSLSQSTICRFESLTLSHNNMIALKPVYQAWLEEAE [L64Y], -0.322 ± 0.069.
For RELEAFAERFKQRRIKLGVTQAHVGAALANLKIPGVGSLSQSTICRFESLTLSHNNMIALKPVLQAWLEEAE [D23H] the value was -0.017 ± 0.23; for RELEAFAERFKQRRIKLGVTQAYVGAALANLKIPGVGSLSQSTICRFESLTLSHNNMIALKPVLQAWLEEAE [D23Y], -0.411 ± 0.16; for RELEAFAERFKQRRIKLGVTQADVGAALANLKIPGVGSLSQSTICRFESLTLSHNNMIALKPALQAWLEEAE [V63A], -0.135 ± 0.095.
Turning to RELEAFAERFKQRRIKLGVTQADVGAALANLKIPGVGSLSQSTICRFEWLTLSHNNMIALKPVLQAWLEEAE [S49W], the abundance fitness is -0.884 ± 0.31.
The figure for RELEAFAERFKQRRIKLGVTQADVGAALANLRIPGVGSLSQSTICRFESLTLSHNNMIALKPVLQAWLEEAE [K32R] is -0.039 ± 0.035.
The figure for RELEAFAERFKQRRIKLGVTQADVGAALANLKIPGVGCLSQSTICRFESLTLSHNNMIALKPVLQAWLEEAE [S38C] is -0.27 ± 0.21; for RELEAFAERFKQRRIKLGVTQADVGAALMNLKIPGVGSLSQSTICRFESLTLSHNNMIALKPVLQAWLEEAE [A29M] it is -0.119 ± 0.14.
For RMLEAFAERFKQRRIKLGVTQADVGAALANLKIPGVGSLSQSTICRFESLTLSHNNMIALKPVLQAWLEEAE [E2M] the value was -0.437 ± 0.13; for RELEAFAERFKQRRIKLGVTQADVGAALANLKIPGVGSLSQSTICRFESLTLSHNNMSALKPVLQAWLEEAE [I58S], -0.034 ± 0.055; for RELEAFAERFKQRRIKLGVTQADVGAALANLKIPGVGSLSQSTICRFESLTLSHNNMKALKPVLQAWLEEAE [I58K], -0.058 ± 0.12.
For RELEAFAERFKQRRIKLGVTVADVGAALANLKIPGVGSLSQSTICRFESLTLSHNNMIALKPVLQAWLEEAE [Q21V], the abundance fitness was -0.002 ± 0.11.
